The text below walks through data of patent publication US20190241654A1 (published 2019).

Assay [1] deals with T1, CD47 on CCRF-CEM cells (human, UniProt Q08722 19-323). Kind of assay: cell-based or functional assay.
Assay [2] has as its target T1, CD47 on CCRF-CEM cells. Kind of assay: flow cytometry on antibody-opsonized CCRF-CEM cells, anti-human Alexa 647 secondary, median fluorescence, sigmoidal fit; Donor 1. As for the experimental part: (§1) Phagocytosis was assayed by serum starving the macrophages in incomplete AIM V media for two hours. During this incubation period, target cells (CCRF-CEM) from two donors (donor 1 and donor 2) were labeled with CSFE (Invitrogen, #C34554) at […] for 15 minutes at room temperature. Cells were rinsed twice with PBS (Hyclone, #SH30028.02) and resuspended at 8×10⁵/mL in AIM V media. Antibody dilutions were prepared at 0.01 ug/ml to 10 ug/ml in half log dilutions and then incubated with the target cell line for 10 minutes at room temperature (a small portion is retained for flow cytometric analysis/cell binding), after which 100 μL of target cell/antibody suspension was added to the macrophage plates. Samples were treated in triplicate and with appropriate isotype controls.
(§2) Samples were incubated for 30 minutes at room temperature, rinsed 2× and then resuspended in FACS buffer and analyzed on the Attune. The EC50 values refer to the concentration that gives half the maximum binding measured as median fluorescent intensity, and was determined by non-linear fit of a sigmoidal dose response within the GraphPad Prism software.
(In general: A flow cytometer gives signals particle by particle.)

Assay [3] deals with T1, CD47 on CCRF-CEM cells. The assay is described as follows: flow cytometry on antibody-opsonized CCRF-CEM cells, anti-human Alexa 647 secondary, median fluorescence, sigmoidal fit; Donor 2. As for the experimental part: as §1, §2
For assay [4], the target named is T1, CD47 on CCRF-CEM cells. The assay is described as follows: flow cytometry on antibody-opsonized CCRF-CEM cells, anti-human Alexa 647 secondary, median fluorescence, sigmoidal fit. As for the experimental part:
as §1, §2

Positions count from the first letter of the chain named. Several values for one entry are separate records, joined by “and”; a condition that tells them apart may be missing. Identical values can stand only once.

T1 sequence (Q08722 19-323): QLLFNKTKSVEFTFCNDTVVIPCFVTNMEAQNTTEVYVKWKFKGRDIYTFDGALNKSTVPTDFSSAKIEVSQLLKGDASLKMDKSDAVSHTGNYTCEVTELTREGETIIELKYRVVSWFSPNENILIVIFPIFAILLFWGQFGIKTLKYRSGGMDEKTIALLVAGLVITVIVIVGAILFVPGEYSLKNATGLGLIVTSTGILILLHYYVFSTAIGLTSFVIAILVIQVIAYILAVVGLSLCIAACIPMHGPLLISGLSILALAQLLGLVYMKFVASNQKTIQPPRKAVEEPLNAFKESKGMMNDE

B1: Ab1119/Ab480 (LC Ab1119, HC Ab480) anti-CD47 antibody (antibody, V domains shown)
VH: QMQLVQSGAEVKKPGSSVKVSCKASGFNIKDYYLHWVRQAPGKGLEWMGWIDPDQGDTEYAQKFQGRVTITRDRSTSTAYMELRSLRAEDTAVYYCNAAYGSSSYPMDYWGQGTLVTVSS
VL: NIQMTQSPSSLSASVGDRVTITCRASQDIHRYLSWFQQKPGKVPKHLIYRANRLVSGVPSRFSGSGSGTEFTLTISSLQPEDFATYYCLQYDEFPYTFGGGTKVEIK
notes: Variant of AbParental
What is called EC50 is the concentration that produces a half-maximal response. Low readings indicate higher potency in that assay, high ones lower potency in that assay. B1: in assay [1], the “Phagocytosis EC50 (ug/mL), Donor 1” value was 0.44 µg/mL and 0.19 µg/mL. Moreover, the “Phagocytosis EC50 (ug/mL), Donor 2” value in assay [1] is 0.71 µg/mL and 0.24 µg/mL. In addition, the EC50 was 0.04 µg/mL in assay [2], 0.07 µg/mL in assay [3] and 0.012 µg/mL in assay [4].

B2: Ab1119/Ab356 (LC Ab1119, HC Ab356) anti-CD47 antibody (antibody, V domains shown)
VH: B1 VH with L115T
VL: B1 VL
notes: Variant of AbParental
As to B2, the “Phagocytosis EC50 (ug/mL), Donor 1” value in assay [1] is 0.36 µg/mL and 0.31 µg/mL and 0.14 µg/mL. For the same molecule, the EC50 in assay [2] was 0.06 µg/mL; in assay [3], 0.16 µg/mL; in assay [4], 0.014 µg/mL and 0.035 µg/mL.
